From patent US20160331662A1 (UAB RESEARCH FOUNDATION, published 2016)

How the values were obtained:
A3VP1^AgI/II = molecular target: T1, A3VP1^AgI/II (Streptococcus mutans UA159, UniProt P23504 386-874); test: SPR, analyte over ligand immobilized on CM5 chip, 1:1 Langmuir model
T1 construct: domain: A3VP1; also called A3VP1 of AgI/II
T1 sequence: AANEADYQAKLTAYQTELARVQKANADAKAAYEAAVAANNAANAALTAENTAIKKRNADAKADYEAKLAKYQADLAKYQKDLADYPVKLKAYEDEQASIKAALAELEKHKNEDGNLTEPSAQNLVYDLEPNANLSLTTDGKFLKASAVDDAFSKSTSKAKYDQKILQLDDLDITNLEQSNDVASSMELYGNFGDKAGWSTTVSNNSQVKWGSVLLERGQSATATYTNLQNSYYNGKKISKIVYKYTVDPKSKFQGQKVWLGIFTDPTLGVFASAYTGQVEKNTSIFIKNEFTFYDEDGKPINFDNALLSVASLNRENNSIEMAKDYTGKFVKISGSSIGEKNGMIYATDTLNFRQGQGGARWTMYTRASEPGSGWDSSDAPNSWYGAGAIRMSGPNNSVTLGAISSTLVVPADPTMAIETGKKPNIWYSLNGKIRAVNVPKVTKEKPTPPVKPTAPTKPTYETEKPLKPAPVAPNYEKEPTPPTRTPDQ

C123^AgI/II = molecular target: T2, C123^AgI/II (Streptococcus mutans UA159, UniProt P23504 1000-1486); test: as above
T2 construct: domain: C123
T2 sequence: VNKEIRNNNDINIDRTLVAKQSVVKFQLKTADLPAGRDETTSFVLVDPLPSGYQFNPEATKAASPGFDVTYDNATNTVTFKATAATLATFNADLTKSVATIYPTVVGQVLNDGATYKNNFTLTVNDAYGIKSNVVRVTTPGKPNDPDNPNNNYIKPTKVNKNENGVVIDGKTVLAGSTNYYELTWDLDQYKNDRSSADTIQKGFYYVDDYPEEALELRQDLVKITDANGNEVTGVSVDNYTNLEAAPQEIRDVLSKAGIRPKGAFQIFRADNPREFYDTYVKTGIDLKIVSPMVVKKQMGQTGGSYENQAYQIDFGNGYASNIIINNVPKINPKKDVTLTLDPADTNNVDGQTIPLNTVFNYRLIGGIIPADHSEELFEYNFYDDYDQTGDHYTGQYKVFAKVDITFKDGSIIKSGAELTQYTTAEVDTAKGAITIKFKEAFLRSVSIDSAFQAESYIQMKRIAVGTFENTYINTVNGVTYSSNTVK

[1] = molecular target: T3, FL^SspB (S. gordonii DL1 SspB, residues 39-1433) (Streptococcus gordonii DL1, UniProt P16952 39-1433); test: as above
T3 construct: range 39-1433
T3 sequence: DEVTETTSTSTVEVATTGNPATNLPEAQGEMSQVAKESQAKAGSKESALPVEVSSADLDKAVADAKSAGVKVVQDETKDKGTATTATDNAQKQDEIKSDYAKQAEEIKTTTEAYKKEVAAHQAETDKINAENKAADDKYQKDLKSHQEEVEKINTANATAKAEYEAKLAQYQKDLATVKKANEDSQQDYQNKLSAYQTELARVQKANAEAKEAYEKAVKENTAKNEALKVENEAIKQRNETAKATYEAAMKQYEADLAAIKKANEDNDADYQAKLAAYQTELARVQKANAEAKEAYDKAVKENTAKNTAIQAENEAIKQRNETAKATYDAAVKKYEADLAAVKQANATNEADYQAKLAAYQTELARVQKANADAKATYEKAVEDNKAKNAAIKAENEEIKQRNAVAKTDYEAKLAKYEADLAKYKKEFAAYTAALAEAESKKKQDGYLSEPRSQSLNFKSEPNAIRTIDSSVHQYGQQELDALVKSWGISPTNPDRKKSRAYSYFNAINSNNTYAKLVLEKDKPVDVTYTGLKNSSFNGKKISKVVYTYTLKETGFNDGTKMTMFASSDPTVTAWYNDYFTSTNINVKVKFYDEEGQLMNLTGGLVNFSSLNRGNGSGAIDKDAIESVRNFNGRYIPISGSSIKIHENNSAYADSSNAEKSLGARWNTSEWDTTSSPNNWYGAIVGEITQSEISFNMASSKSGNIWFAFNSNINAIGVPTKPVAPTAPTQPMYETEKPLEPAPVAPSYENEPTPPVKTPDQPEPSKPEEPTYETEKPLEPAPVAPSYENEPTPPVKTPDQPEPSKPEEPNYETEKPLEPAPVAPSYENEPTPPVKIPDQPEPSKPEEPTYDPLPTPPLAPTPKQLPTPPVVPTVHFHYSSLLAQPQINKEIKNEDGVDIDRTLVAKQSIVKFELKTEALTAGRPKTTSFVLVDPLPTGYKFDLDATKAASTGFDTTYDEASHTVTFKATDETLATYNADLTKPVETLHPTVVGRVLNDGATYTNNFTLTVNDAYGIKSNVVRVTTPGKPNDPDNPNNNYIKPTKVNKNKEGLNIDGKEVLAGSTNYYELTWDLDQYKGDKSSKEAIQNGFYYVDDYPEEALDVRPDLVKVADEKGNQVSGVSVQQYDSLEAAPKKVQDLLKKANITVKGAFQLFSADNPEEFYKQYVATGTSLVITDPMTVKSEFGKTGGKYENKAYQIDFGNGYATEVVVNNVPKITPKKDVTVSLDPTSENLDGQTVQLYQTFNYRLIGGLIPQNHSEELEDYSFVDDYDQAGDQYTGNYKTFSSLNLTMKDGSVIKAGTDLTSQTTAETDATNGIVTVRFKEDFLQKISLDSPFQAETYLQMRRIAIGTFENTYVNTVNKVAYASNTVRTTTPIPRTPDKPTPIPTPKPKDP

[2] = molecular target: T4, FL^AgI/II (S. mutans UA159 Antigen I/II, full length recombinant construct) (Streptococcus mutans UA159, UniProt P23504 39-1562); test: as above
T4 construct: also called CG14

[3] = molecular target: the molecule itself; test: SPR, analyte over immobilized iSRCR123; quantity and unit not printed beside the number, told as 'nanomolar affinities'

T4 sequence (P23504 39-1562): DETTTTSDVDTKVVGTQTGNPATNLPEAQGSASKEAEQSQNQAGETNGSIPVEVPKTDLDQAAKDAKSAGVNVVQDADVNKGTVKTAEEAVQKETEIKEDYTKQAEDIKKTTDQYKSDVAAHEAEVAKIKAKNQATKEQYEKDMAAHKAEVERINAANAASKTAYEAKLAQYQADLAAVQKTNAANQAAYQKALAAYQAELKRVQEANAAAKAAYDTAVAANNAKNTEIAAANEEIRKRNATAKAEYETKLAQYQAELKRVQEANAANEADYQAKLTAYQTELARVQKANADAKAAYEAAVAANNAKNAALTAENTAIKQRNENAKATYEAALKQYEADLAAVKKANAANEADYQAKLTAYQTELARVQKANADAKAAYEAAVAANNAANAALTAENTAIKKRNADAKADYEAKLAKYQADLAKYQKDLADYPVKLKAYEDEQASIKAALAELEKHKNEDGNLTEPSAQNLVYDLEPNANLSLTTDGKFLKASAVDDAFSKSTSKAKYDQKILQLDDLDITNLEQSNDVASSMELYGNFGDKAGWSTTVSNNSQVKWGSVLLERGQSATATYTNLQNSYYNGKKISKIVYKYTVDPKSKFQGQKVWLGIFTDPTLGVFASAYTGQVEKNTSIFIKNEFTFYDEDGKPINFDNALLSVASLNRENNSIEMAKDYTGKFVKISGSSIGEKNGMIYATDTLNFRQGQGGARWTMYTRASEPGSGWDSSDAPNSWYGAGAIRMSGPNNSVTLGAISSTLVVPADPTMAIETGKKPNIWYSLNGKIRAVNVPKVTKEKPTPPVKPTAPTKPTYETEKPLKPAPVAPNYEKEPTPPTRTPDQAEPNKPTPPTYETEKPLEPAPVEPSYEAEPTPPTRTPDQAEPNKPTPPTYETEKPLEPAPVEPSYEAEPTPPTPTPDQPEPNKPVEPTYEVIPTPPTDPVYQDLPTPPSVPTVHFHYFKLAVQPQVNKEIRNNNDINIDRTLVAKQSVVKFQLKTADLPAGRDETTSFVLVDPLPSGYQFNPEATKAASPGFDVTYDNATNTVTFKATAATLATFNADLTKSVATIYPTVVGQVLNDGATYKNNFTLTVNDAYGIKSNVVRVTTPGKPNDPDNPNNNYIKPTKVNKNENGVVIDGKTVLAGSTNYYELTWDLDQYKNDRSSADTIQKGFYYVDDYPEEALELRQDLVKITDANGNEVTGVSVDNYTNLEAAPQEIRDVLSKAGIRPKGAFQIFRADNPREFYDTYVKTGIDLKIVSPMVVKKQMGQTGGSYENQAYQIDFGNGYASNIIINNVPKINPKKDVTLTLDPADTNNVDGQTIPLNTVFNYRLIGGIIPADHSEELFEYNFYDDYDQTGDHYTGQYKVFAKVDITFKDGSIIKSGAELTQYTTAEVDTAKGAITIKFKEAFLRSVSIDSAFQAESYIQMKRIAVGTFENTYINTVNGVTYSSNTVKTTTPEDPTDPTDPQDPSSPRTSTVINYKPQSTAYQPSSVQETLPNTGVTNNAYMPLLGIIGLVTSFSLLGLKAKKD

B1: iSRCR123 (receptor, not shown: small tags and cut ends)
chain: not shown
notes: domain: SRCR123; also called SRCRs; iSRCRs
- Ka (A3VP1^AgI/II): 7.98e+06 M⁻¹
- Kd (A3VP1^AgI/II): 125 nM
- koff (A3VP1^AgI/II): 0.00249 s⁻¹
- kon (A3VP1^AgI/II): 19900 M⁻¹ s⁻¹
- Ka (C123^AgI/II): 1.15e+07 M⁻¹
- Kd (C123^AgI/II): 87 nM
- koff (C123^AgI/II): 0.000721 s⁻¹
- kon (C123^AgI/II): 8290 M⁻¹ s⁻¹
- Ka [1]: 2.38e+07 M⁻¹
- Kd [1]: 42.1 nM
- koff [1]: 0.000759 s⁻¹
- kon [1]: 18200 M⁻¹ s⁻¹
- Ka [2]: 1.34e+08 M⁻¹
- Kd [2]: 7.46 nM
- koff [2]: 0.000743 s⁻¹
- kon [2]: 99700 M⁻¹ s⁻¹
- Kd [3]: 6.72 nM
